IntAct's records for PubMed 29039417

B1: BBSome complex member BBS2 (Homo sapiens), Q9BXC9 (parent)
chain: MLLPVFTLKLRHKISPRMVAIGRYDGTHPCLAAATQTGKVFIHNPHTRNQHVSASRVFQSPLESDVSLLSINQAVSCLTAGVLNPELGYDALLVGTQTNLLAYDVYNNSDLFYREVADGANAIVLGTLGDISSPLAIIGGNCALQGFNHEGSDLFWTVTGDNVNSLALCDFDGDGKKELLVGSEDFDIRVFKEDEIVAEMTETEIVTSLCPMYGSRFGYALSNGTVGVYDKTSRYWRIKSKNHAMSIHAFDLNSDGVNELITGWSNGKVDARSDRTGEVIFKDNFSSAIAGVVEGDYRMDGHIQLICCSVDGEIRGYLPGTAEMRGNLMDTSAEQDLIRELSQKKQNLLLELRNYEENAKAELASPLNEADGHRGIIPANTRLHTTLSVSLGNETQTAHTELRISTSNDTIIRAVLIFAEGIFTGESHVVHPSIHNLSSSICIPIVPPKDVPVDLHLKAFVGYRSSTQFHVFESTRQLPRFSMYALTSLDPASEPISYVNFTIAERAQRVVVWLGQNFLLPEDTHIQNAPFQVCFTSLRNGGHLHIKIKLSGEITINTDDIDLAGDIIQSMASFFAIEDLQVEADFPVYFEELRKVLVKVDEYHSVHQKLSADMADHSNLIRSLLVGAEDARLMRDMKTMKSRYMELYDLNRDLLNGYKIRCNNHTELLGNLKAVNQAIQRAGRLRVGKPKNQVITACRDAIRSNNINTLFKIMRVGTASS
partner: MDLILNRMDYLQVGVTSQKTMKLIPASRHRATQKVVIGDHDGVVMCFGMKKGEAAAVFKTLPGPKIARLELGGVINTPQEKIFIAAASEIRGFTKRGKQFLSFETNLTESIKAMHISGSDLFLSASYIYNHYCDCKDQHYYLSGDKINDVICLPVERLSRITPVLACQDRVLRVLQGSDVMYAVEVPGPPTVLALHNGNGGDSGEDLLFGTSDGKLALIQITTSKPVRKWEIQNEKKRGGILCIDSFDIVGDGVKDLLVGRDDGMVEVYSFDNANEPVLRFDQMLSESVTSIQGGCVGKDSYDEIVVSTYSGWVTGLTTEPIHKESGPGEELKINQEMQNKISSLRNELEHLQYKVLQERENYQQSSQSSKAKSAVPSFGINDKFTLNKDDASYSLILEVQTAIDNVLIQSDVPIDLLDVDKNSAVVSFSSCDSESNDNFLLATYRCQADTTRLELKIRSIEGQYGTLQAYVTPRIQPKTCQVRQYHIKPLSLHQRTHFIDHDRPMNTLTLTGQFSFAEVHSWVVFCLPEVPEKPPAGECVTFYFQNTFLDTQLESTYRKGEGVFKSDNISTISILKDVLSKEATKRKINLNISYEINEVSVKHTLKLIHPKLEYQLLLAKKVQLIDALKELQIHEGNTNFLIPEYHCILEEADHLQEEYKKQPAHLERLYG

Variants of: B1
Conditions: with BBS7, Q8IWZ6-2

Variant	effect of a mutation on the interaction
M637K	with no effect
M637E	with no effect
M637S	disrupting interaction strength
L647K	with no effect
L647E	disrupting interaction strength
E629K	with no effect
L668K	with no effect
L668A	with no effect
L668E	with no effect
S618A	with no effect
S618K	with no effect
A678E	with no effect
K659A	with no effect
K659E	with no effect
L625E	with no effect
L625K	with no effect
V626E	with no effect
V626K	with no effect
L669K	with no effect
L669A	with no effect
L669E	with no effect
L620K	with no effect
L620A	with no effect
R652E	with no effect

Variant	effect of a mutation on the interaction
R652K	with no effect
R652A	with no effect
L654E	with no effect
L654K	with no effect
L654A	with no effect
E667A	with no effect
C662E	with no effect
C662A	with no effect
L650E	with no effect
I621K	with no effect
I621A	with no effect
I679K	disrupting interaction strength
I679L	disrupting interaction strength
I679A	disrupting interaction strength
R661A	with no effect
R661K	with no effect
R661E	with no effect
I660A	with no effect
I660E	with no effect
V675A	with no effect
K673E	with no effect
K673A	with no effect
N671K	with no effect
N671E	disrupting interaction strength

Variant	effect of a mutation on the interaction
N671A	with no effect
S642A	with no effect
S642K	with no effect
S642E	with no effect
D649A	with no effect
D649K	with no effect
D649E	with no effect
T666E	with no effect
M640E	with no effect
M640A	with no effect
D636G	disrupting interaction strength
D636A	with no effect
D636K	disrupting interaction strength
Y658A	with no effect
K638E	with no effect
K638A	with no effect
D653A	with no effect
D653K	with no effect
Y648K	with no effect
K641E	with no effect
G670A	with no effect
G670C	disrupting interaction strength
G670K	with no effect
G670E	with no effect

Variant	effect of a mutation on the interaction
N664A	with no effect
N664E	with no effect
Q677A	with no effect
Q677E	with no effect
G657A	with no effect
L672A	with no effect
L672K	with no effect
L672E	with no effect
G627E	with no effect
G627A	with no effect
G627K	with no effect
L624A	with no effect
L624K	with no effect
L624E	with no effect
L655A	with no effect
N676A	with no effect
N676E	with no effect
N676K	with no effect
N676T	disrupting interaction strength
D630E	with no effect
M645A	with no effect
R622K	with no effect
R622E	with no effect
M634K	with no effect

Variant	effect of a mutation on the interaction
Y644A	with no effect
A631E	with no effect
A631K	with no effect
R643K	with no effect
R643A	with no effect
N656E	with no effect
N656K	with no effect
N656A	with no effect
N619A	with no effect
N619K	with no effect
E646A	with no effect
E646K	with no effect
S623E	with no effect
R635K	with no effect
R635A	with no effect
N663E	with no effect
H665A	with no effect
T639K	with no effect
T639E	with no effect
L633A	with no effect
R632A	with no effect
R632E	with no effect

Other lines, results leading:

effect of a mutation on the interaction	Variant
with no effect	M637A
disrupting interaction strength	L647A
with no effect	E629A
with no effect	S618E
with no effect	A678K
with no effect	L625A
with no effect	V626A
with no effect	L620E
with no effect	E667K
with no effect	C662K
with no effect	L650A
with no effect	L650K
with no effect	I621E
disrupting interaction strength	I679E
with no effect	I660K
with no effect	V675E
with no effect	V675K
with no effect	T666A
with no effect	T666K
with no effect	N651E
with no effect	N651K

effect of a mutation on the interaction	Variant
with no effect	N651A
with no effect	M640K
with no effect	D636E
with no effect	Y658E
with no effect	Y658K
with no effect	D653E
with no effect	Y648A
with no effect	Y648E
with no effect	K641A
with no effect	N664K
with no effect	Q677K
with no effect	G657K
with no effect	G657E
with no effect	L655K
with no effect	L655E
with no effect	D630K
with no effect	D630A
with no effect	M645E
with no effect	M645K
with no effect	R622A
with no effect	M634A

effect of a mutation on the interaction	Variant
with no effect	M634E
with no effect	Y644K
disrupting interaction strength	Y644E
with no effect	R643E
with no effect	N619E
with no effect	S623K
with no effect	S623A
disrupting interaction strength	R635C
with no effect	R635E
with no effect	A674K
with no effect	A674E
with no effect	N663K
with no effect	N663A
with no effect	H665E
with no effect	H665K
with no effect	T639A
with no effect	L633K
with no effect	L633E
with no effect	A628E
disrupting interaction strength	A628K
with no effect	R632K
